The values that follow come from patent US12390491B2, “Compositions and methods for providing chemoprotective effects” (GTECH BIO LLC, priority 2020, dated 2025).

Format in all cases: cell-based
Series [1] deals with Jurkat, CEM and TF-1a cells. In words: Cell survival and proliferation (Nucleocounter NC-200, flow cytometry with PI and 7-AAD). On the procedure:
Jurkat, CEM, and Tf-1a cell lines were transduced with a lentiviral vector that expresses GCLM and green fluorescent protein (GFP) genes. Chemoprotection experiments were performed by incubating untransduced or mixed populations of (20% transduced, 80% untransduced) cells with busulfan in concentrations ranging from 0 to 200 μg/ml for 1, 2 or 4 hours. Cells were then incubated in busulfan-free culture for 24, 48, 72 and 96 h. Area under the concentration-time curve (AUC) was estimated by using trapezoidal rule from different times and concentrations of incubation. Pre- and post-exposure GSH levels were measured with fluorometric assays. Cell survival and proliferation at different time-points were measured by Nucleocounter NC-200 and flow cytometry using PI and 7-AAD staining protocols. The chemoselection of protected GFP+ cells were evaluated by flow cytometry. Baseline GSH levels and GCLM expression were also measured in primary human HSPCs harvested from 3 different donors with fluorometric and RT-PCR assays. […]
(§1) Jurkat, CEM, and TF-1a cell lines were transduced with a lentiviral vector that expresses GCLM and green fluorescent protein (GFP) genes (FIG. 2A). […] Pre- and post-transduction, and post-exposure GSH levels were measured with fluorometric assays by FACS analysis. […] The chemo selection of protected GFP-positive cells were evaluated by flow cytometry.
(In general: A flow cytometer gives signals particle by particle.)

The test system of series [2] is CEM cells. Description: GSH level by fluorometric assay, untransduced vs GCLM-transduced cells, pre- and post-busulfan exposure. On the procedure: (§2) Jurkat, CEM, and Tf-1a cell lines were transduced with a lentiviral vector that expresses GCLM and green fluorescent protein (GFP) genes. Chemoprotection experiments were performed by incubating untransduced or mixed populations of (20% transduced, 80% untransduced) cells with busulfan in concentrations ranging from 0 to 200 μg/ml for 1, 2 or 4 hours. Cells were then incubated in busulfan-free culture for 24, 48, 72 and 96 h. Area under the concentration-time curve (AUC) was estimated by using trapezoidal rule from different times and concentrations of incubation. Pre- and post-exposure GSH levels were measured with fluorometric assays. Cell survival and proliferation at different time-points were measured by Nucleocounter NC-200 and flow cytometry using PI and 7-AAD staining protocols. The chemoselection of protected GFP+ cells were evaluated by flow cytometry. Baseline GSH levels and GCLM expression were also measured in primary human HSPCs harvested from 3 different donors with fluorometric and RT-PCR assays.
(§3) The Cells are incubated with busulfan (0, 1, 2, 4, 6, 8, 10, 20, 40, 60, 80, 100 and 200 μg/ml) in serum-free media (RPMI) for 1, 2 and 4 hours. The cells were then washed with ice-cold buffer (PBS+0.5% HSA+0.1% glucose). The washed cells were cultured in RPMI+20% FBS. 24, 48, 72, and 96 h time-point measurements were done.
(§4) Jurkat, CEM, and TF-1a cell lines were transduced with a lentiviral vector that expresses GCLM and green fluorescent protein (GFP) genes (FIG. 2A). Chemoprotection experiments were performed by incubating untransduced or mixed populations of (20% transduced, 80% untransduced) cells with busulfan in concentrations ranging from low (2 to 10 ug/ml) to moderate and high (10 to 200 ug/ml) for 1 or 2 hours. Cells were then incubated and viable cell counts were documented in busulfan-free culture for the 24, 48, 72 and 96-hr timepoints (FIG. 2B). Pre- and post-transduction, and post-exposure GSH levels were measured with fluorometric assays by FACS analysis. Cell survival and proliferation were measured daily by Nucleocounter NC-200 and flow cytometry using PI and 7-AAD staining protocols. The chemo selection of protected GFP-positive cells were evaluated by flow cytometry.

Series [3] deals with CEM cells. In words: Chemoprotection experiment: busulfan exposure, then viable cell count and proliferation in busulfan-free culture. The settings on record: for expansion of viable transduced cells: CEM cells; for fold expansion in viable transduced cells: at 72 h. On the procedure: as §2, §3, §4
The subject of series [4] is CEM cells. In words: Chemoselection of protected GFP+ cells by flow cytometry in mixed populations (20% transduced, 80% untransduced). Here is the method: as §2, §3, §4
A further series has as its system Jurkat cells. Description: GSH level by fluorometric assay, untransduced vs GCLM-transduced cells. As to conditions: lentiviral GCLM/GFP transduction. Here is the method: as §2, §1
In another series the test system is TF-1a cells. The description is as above. The settings on record: lentiviral GCLM/GFP transduction. Here is the method:
as §2, §1

As for `CS(=O)(=O)OCCCCOS(C)(=O)=O` [busulfan, reference compound], the “dependence of cell death and proliferation on busulfan exposure” value in series [1] (all cell cultures, AUC estimated by trapezoidal rule) is “AUC-dependent”. Besides, in the series with CEM cells [2] (untransduced cells), the “GSH in untransduced cells after busulfan exposure” value was “depleted”. The “sensitivity of untransduced cells to busulfan exposure” value in the series with CEM cells [3] (untransduced CEM cells compared with Jurkat and TF-1a) is given as “most sensitive”. In addition, in the series with CEM cells [3] (untransduced CEM cells, higher doses (10 and 20 μg/ml), by 96 hours), the “survival of untransduced cells after busulfan” value is on record as “all dead”.

B1: GCLM: Heterologous human glutamate-cysteine ligase modifier subunit (SEQ ID NO: 1) overexpressed in cells via lentiviral vector co-expressing GFP (protein)
chain: MGTDSRAAKALLARARTLHLQTGNLLNWGRLRKKCPSTHSEELHDCIQKTLNEWSSQINPDLVREFPDVLECTVSHAVEKINPDEREEMKVSAKLFIVESNSSSSTRSAVDMACSVLGVAQLDSVIIASPPIEDGVNLSLEHLQPYWEELENLVQSKKIVAIGTSDLDKTQLEQLYQWAQVKPNSNQVNLASCCVMPPDLTAFAKQFDIQLLTHNDPKELLSEASFQEALQESIPDIQAHEWVPLWLLRYSVIVKSRGIIKSKGYILQAKRRGS
On to B1, for which the “effect of GCLM overexpression on cell viability and proliferation” value in series [1] (Jurkat, CEM and TF-1a cells, no busulfan) is “no effect”. The “GSH level in transduced cells relative to untransduced cells after busulfan” value in the series with CEM cells [2] (CEM cells, different dose and time, 24-hr post busulfan exposure) is recorded as “at least 3.5 fold”. Moreover, the “GSH level change between untransduced and transduced cells” value worked out at 1.7 fold in the series with CEM cells [2] (CEM cells, lentiviral GCLM/GFP transduction); 2.1 fold in the series with Jurkat cells; 1.9 fold in the series on TF-1a cells. In addition, in the series with CEM cells [2] (transduced cells, after busulfan exposure), the “GSH levels in transduced cells throughout the experiment” value is “remained stable”. The “purity of transduced CEM cells” value with CEM cells [4] (72 h of culture after 10 ug/ml busulfan for 1 h, starting from 20%) came to 88%. For the same molecule, the transduced cell population with CEM cells [4] (CEM cells, 10 or 20 μg/ml busulfan, 1-hr or 2-hr exposure, by 96 hours, from 20% initial) came out at 100%; with CEM cells [4] (moderate levels of busulfan exposure, in 72-96 h), 100%. Further, in the series with CEM cells [4] (CEM cells, 72 h of culture after 10 ug/ml busulfan for 1 h, starting from 30×10^3/ml), the “viable transduced cell count” value was found to be 84000 mL⁻¹. Moreover, in the series with CEM cells [4] (busulfan doses higher than 10 ug/ml or exposure longer than 1 h, after 72 h), the “transduced cells as share of the cultures” value is recorded as 100%. The “expansion of viable transduced cells” value with CEM cells [3] (10 μg/ml busulfan, by 96 hours) is recorded as 5 fold; in the series on CEM cells [3] (20 μg/ml busulfan, by 96 hours) it was 3 fold. The “protection (proliferation rate) against busulfan” value with CEM cells [3] (GCLM-transduced CEM cells, lower doses of busulfan) is recorded as “at least 3.5 fold”. For the same molecule, the “fold expansion in viable transduced cells” value amounted to 2.8 fold in the series with CEM cells [3] (busulfan-exposed transduced cells) and 3.2 fold in the series with CEM cells [3] (untreated (no busulfan) transduced control).
